One assay has as its target human CD122 (human) (UniProt P14784). Briefly: cell-based or functional assay.
Another assay deals with T1, mouse CD122 (mouse, UniProt P16297 27-240, limits assumed).
T1 sequence (looked up): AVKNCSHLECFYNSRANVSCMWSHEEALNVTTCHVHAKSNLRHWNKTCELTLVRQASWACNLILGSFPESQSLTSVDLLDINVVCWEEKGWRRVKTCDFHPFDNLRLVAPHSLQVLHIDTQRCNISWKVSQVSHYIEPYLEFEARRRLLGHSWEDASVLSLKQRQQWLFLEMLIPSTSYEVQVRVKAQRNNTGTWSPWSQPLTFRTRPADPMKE
Kind of assay: assay not specified.

Sequence of human CD122 (human) (P14784 27-551): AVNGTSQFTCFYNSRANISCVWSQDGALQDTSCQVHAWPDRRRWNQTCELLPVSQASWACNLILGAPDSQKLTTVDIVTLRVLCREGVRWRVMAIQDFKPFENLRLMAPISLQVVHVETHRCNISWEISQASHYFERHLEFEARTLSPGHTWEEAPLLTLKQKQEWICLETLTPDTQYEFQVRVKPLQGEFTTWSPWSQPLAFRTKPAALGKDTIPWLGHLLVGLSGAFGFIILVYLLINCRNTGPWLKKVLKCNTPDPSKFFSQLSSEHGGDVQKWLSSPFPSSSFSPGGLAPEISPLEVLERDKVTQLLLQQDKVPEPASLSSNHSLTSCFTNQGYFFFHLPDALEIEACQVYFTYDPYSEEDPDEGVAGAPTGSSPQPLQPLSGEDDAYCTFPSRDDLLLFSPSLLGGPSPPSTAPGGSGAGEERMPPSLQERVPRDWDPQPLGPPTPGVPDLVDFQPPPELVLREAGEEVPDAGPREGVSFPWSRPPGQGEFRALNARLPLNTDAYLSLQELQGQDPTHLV

As for HuMik-β1 (antibody), the antibody concentration required for 50% inhibition of proliferation mediated by trans-presentation of IL-15 to TF-1β cells with human CD122 (human) was determined as 10 µg/mL.

B1: ABC101 (antibody, mouse IgG2b, V domains shown)
VH: DVQLQESGPGLVKPSQTVSLTCTVTGYSITNDNHWWNWIRQVSGSKLEWMGYIDSSGSSDNNPSLKSQISITRDTSKNQLFLQLNSVTIEDIGTYYCARGGGRDYYGMDYWGQGTSVTVSS
VL: DIVLTQSPASLAVSLGQRATISCRASQSVSTSSYSYVHWYQQKPGQPPKLLIKYASNLESGVPARFSGSGSGTDFTLNIHPVEEEDTATYYCQHSWDIPFTFGGGTKLEIK
notes: Mouse IgG2b/kappa purified from hybridoma; also called mouse anti-human CD122 monoclonal antibody ABC101
Turning to B1, the binding result with mouse CD122 was “no binding”.

B2: ABC2 (antibody, mouse IgG1, V domains shown)
VH: EVKLVESGGGLVQPGGSLRLSCATSGFTFSDFYMEWVRQPPGKRLEWIAASRNKANDYTTEYSASVKGRFIVSRDTSQSILYLQMNALRAEDTAIYYCARSYYRYDGMDYWGQGTSVTVSS
VL: QVVLTQSPVIMSASPGEKVTMTCSAISSVSYMYWYQQKPGSSPRLLIYDTSNLVSGVPVRFSGSGSGTSYSLTISRMEAEDAATYYCQQWNTYPYTFGGGTKLEIK
notes: Mouse IgG1/kappa purified from hybridoma; also called mouse anti-human CD122 monoclonal antibody ABC2
With B2, in the assay with mouse CD122, the binding result was “no binding”.

The values are drawn from US20110250213A1 (JN BIOSCIENCES, published 2011).
